Consider 49 molecules from patent publication US20170165339A1.

In this test the target is HLA-A*24 (human). Briefly: UV peptide-exchange ELISA, yield grade.
Molecule MYDSYWRQF [… (SEQ ID NO: 179)] showed a peptide exchange yield of more than 75%.
QYSSVFKSL [… (SEQ ID NO: 216)] came in with a peptide exchange yield of more than 75%.
With TYTTVPRVAF [… (SEQ ID NO: 172)] the figure was more than 75%.
For RYSTGLAGNLL [… (SEQ ID NO: 221)], the peptide exchange yield is 50 to 75%.
With LYLDKATLI [… (SEQ ID NO: 198)] the figure was 50 to 75%.
Regarding IYQLDTASI [… (SEQ ID NO: 182)], the peptide exchange yield lay in the range of 50 to 75%.
VYGFQWRHF [… (SEQ ID NO: 276)] returned a peptide exchange yield of more than 75%.
With TYIKPISKL [… (SEQ ID NO: 273)] the figure was 50 to 75%; with VYRDETGELF [… (SEQ ID NO: 226)], 50 to 75%.
As for RYFKGLVF [RYFKGLVF (SEQ ID NO: 188)], the figure is 50 to 75%.
As for RYPDNLKHLYL [… (SEQ ID NO: 280)], the figure is more than 75%; as for AYLHSHALI [… (SEQ ID NO: 274)], more than 75%; as for FYSRLLQKF [… (SEQ ID NO: 203)], 50 to 75%.
In the case of RFHPTPLLL [… (SEQ ID NO: 193)], the peptide exchange yield was more than 75%.
Take IFIEVFSHF [… (SEQ ID NO: 178)]: the peptide exchange yield is 50 to 75%.
For YYVYIMNHL [… (SEQ ID NO: 225)], the peptide exchange yield lay in the range of 50 to 75%.
EYQENFLSF [… (SEQ ID NO: 206)] displayed a peptide exchange yield of 50 to 75%.
Molecule EFGSLHLEFL [… (SEQ ID NO: 194)] gave a peptide exchange yield of less than 20%.
In turn, FFPPTRQMGLLF [… (SEQ ID NO: 217)] came in with a peptide exchange yield of more than 75%.
Regarding WYVNGVNYF [… (SEQ ID NO: 189)], the peptide exchange yield was 20 to 49%.
LYLKLWNLI [… (SEQ ID NO: 214)] gave a peptide exchange yield of 50 to 75%.
VFQNFPLLF [… (SEQ ID NO: 184)]: the peptide exchange yield was more than 75%.
Take KYIPYKYVI [… (SEQ ID NO: 223)]: the peptide exchange yield was in the range of 50 to 75%.
Regarding KYMVYPQTF [… (SEQ ID NO: 267)], the peptide exchange yield was more than 75%.
With TYTQDFNKF [… (SEQ ID NO: 208)] the figure was 50 to 75%; with LYLDIINLF [… (SEQ ID NO: 181)], more than 75%.
For the molecule IFLDYEAGTLSF [… (SEQ ID NO: 227)], the peptide exchange yield was more than 75%.
Regarding QYLQDAYSF [… (SEQ ID NO: 272)], the peptide exchange yield is more than 75%.
With GFFIFNERF [… (SEQ ID NO: 190)], the peptide exchange yield lay within 50 to 75%.
Molecule RYISDQLFTNF [… (SEQ ID NO: 278)] gave a peptide exchange yield of more than 75%.
KFVDSTFYL [… (SEQ ID NO: 282)] came in with a peptide exchange yield of more than 75%.
As for IFPQFLYQF [… (SEQ ID NO: 186)], the figure is more than 75%; as for TYIESASEL [… (SEQ ID NO: 279)], 50 to 75%; as for EYINQGDLHEF [… (SEQ ID NO: 275)], 50 to 75%.
TYLRDQHFL [… (SEQ ID NO: 187)]: the peptide exchange yield is more than 75%.
As for VFTSTARAF [… (SEQ ID NO: 183)], the figure is 50 to 75%.
As to SYALLTYMI [… (SEQ ID NO: 192)], the peptide exchange yield is more than 75%.
Molecule IYKVGAPTI [… (SEQ ID NO: 185)] gave a peptide exchange yield of 50 to 75%.
VHIPEVYLI [… (SEQ ID NO: 205)] yielded a peptide exchange yield of 50 to 75%.
Consider EYPLVINTL [… (SEQ ID NO: 219)], for which the peptide exchange yield lay within 50 to 75%.
Consider IYDDSFIRPVTF [… (SEQ ID NO: 180)], for which the peptide exchange yield fell in the range of 50 to 75%.
As for IYTMIYRNL [… (SEQ ID NO: 210)], the peptide exchange yield was more than 75%.
With VFKASKITF [… (SEQ ID NO: 191)] the figure was 50 to 75%.
As for QYLENLEKL [… (SEQ ID NO: 224)], the figure is 50 to 75%; as for LYHDIFSRL [… (SEQ ID NO: 271)], more than 75%.
YFDKVVTL [YFDKVVTL (SEQ ID NO: 215)] came in with a peptide exchange yield of 20 to 49%.
KYTSWYVAL [… (SEQ ID NO: 228)] returned a peptide exchange yield of more than 75%.
The molecule VYPWLGALL [… (SEQ ID NO: 177)] gave a peptide exchange yield of more than 75%.
YYLEVGKTLI [… (SEQ ID NO: 211)] showed a peptide exchange yield of more than 75%.
